According to paper PMC9298051, “A phytobacterial TIR domain effector manipulates NAD^+ to promote virulence” (The New Phytologist, 2021):

Assays:
AbTIR = biological target: T1, AbTIR (Acinetobacter baumannii, UniProt A0A009IHW8); test: HPLC of reaction products; format: biochemical; conditions: product v-cADPR
T1 construct: gene J512_3302; His-tagged recombinant AbTIR-His

[1] = test system: NC(=O)c1ccc[n+]([C@@H]2O[C@H](COP(=O)(O)OP(=O)(O)OC[C@H]3O[C@@H](n4cnc5c(N)ncnc54)[C@H](O)[C@@H]3O)[C@@H](O)[C@H]2O)c1; test: purified protein; conditions: room temperature, 60 min, 1–600 μM NAD+

T1 sequence (A0A009IHW8 whole entry): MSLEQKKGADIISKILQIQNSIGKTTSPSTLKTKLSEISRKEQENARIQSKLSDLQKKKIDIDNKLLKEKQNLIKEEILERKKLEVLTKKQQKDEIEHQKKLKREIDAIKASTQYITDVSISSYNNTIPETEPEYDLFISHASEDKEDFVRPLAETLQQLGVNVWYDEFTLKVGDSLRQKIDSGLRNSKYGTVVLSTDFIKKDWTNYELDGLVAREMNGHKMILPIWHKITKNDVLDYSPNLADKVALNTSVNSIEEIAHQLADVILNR

Molecule	HPLC of reaction products (AbTIR)	Km [1] [µM]	kcat [1] [s⁻¹]
NC(=O)c1ccc[n+]([C@@H]2O[C@H](COP(=O)(O)OP(=O)(O)OC[C@H]3O[C@@H](n4cnc5c(N)ncnc54)[C@H](O)[C@@H]3O)[C@@H](O)[C@H]2O)c1 [NAD^+]	NAD^+ hydrolase reactions were conducted with purified HopAM1 and AbTIR		
HopAM1 (Pseudomonas syringae pv. tomato str. DC3000)		174.8	0.00933
